What was measured:
Assay in all cases: purified protein
[1] = substrate: CC(C)=CCC/C(C)=C/C=O; settings: 0.2 mM NADH, 100 mM PBS pH 8.0, 30°C
[2] = substrate: NC(=O)C1=CN([C@@H]2O[C@H](COP(=O)(O)OP(=O)(O)OC[C@H]3O[C@@H](n4cnc5c(N)ncnc54)[C@H](O)[C@@H]3O)[C@@H](O)[C@H]2O)C=CC1; settings: 5 mM (E/Z)-citral, 100 mM PBS pH 8.0, 30°C, varied: cofactor
[3] = substrate: CC(C)=CCC/C(C)=C\C=O; settings: 0.2 mM NADH, 100 mM PBS pH 8.0, 30°C

B1: OYE2p (Saccharomyces cerevisiae S288C) (protein)
chain: PFVKDFKPQALGDTNLFKPIKIGNNELLHRAVIPPLTRMRAQHPGNIPNRDWAVEYYAQRAQRPGTLIITEGTFPSPQSGGYDNAPGIWSEEQIKEWTKIFKAIHENKSFAWVQLWVLGWAAFPDTLARDGLRYDSASDNVYMNAEQEEKAKKANNPQHSITKDEIKQYVKEYVQAAKNSIAAGADGVEIHSANGYLLNQFLDPHSNNRTDEYGGSIENRARFTLEVVDAVVDAIGPEKVGLRLSPYGVFNSMSGGAETGIVAQYAYVLGELERRAKAGKRLAFVHLVEPRVTNPFLTEGEGEYNGGSNKFAYSIWKGPIIRAGNFALHPEVVREEVKDPRTLIGYGRFFISNPDLVDRLEKGLPLNKYDRDTFYKMSAEGYIDYPTYEEALKLGWDKN
Km [1]: 120 ± 25 µM
kcat [1]: 0.213 ± 0.008 s⁻¹
kcat/Km [1]: 1780 ± 305 M⁻¹ s⁻¹
Km [2]: 14 ± 4 µM
Km [3]: 310 ± 47 µM
kcat [3]: 0.13 ± 0.008 s⁻¹
kcat/Km [3]: 421 ± 39 M⁻¹ s⁻¹

From PMC9049607
